The target in series [1] is amyloidogenic peptide Aβ10-35 (UniProt P05067). Nature of the series: cell-based or functional assay.
Series [2] deals with the molecule itself. Nature of the series: preliminary studies, self-aggregation (data not shown).

*1 amine or outer side, *2 acyl side, *3 side chain or, on linkers, in order; H or OH if unused. Where no end group is shown, it is not given here. [ ]: non-standard residue; d: D form. Dbzg = C-alpha,alpha-dibenzylglycine, O=C(C(Cc1ccccc1)(Cc1ccccc1)N[*:1])[*:2]; Dibg = C-alpha,alpha-diisobutylglycine, CC(C)CC(CC(C)C)(N[*:1])C(=O)[*:2]; Dpg = CCCC(N)(CCC)C(=O)O

Sequence of amyloidogenic peptide Aβ10-35 (P05067 681-706): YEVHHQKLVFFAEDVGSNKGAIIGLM

Consider “AMY-1: Lys-Dibg-Val-Dbzg-Phe-Dpg-(Lys)6-NH2 (peptide)”, for which the inhibition of aggregation (amyloid fibril formation) in series [1] amounted to 5 µM.

B1: AMY-2: (Lys)7-Dibg-Val-Dbzg-Phe-Dpg-NH2 (peptide)
peptide: KKKKKKK[Dibg]V[Dbzg]F[Dpg]-NH2
modifications: N-terminus assumed
SMILES: CCCC(CCC)(NC(=O)[C@H](Cc1ccccc1)NC(=O)C(Cc1ccccc1)(Cc1ccccc1)NC(=O)[C@@H](NC(=O)C(CC(C)C)(CC(C)C)NC(=O)[C@H](CCCCN)NC(=O)[C@H](CCCCN)NC(=O)[C@H](CCCCN)NC(=O)[C@H](CCCCN)NC(=O)[C@H](CCCCN)NC(=O)[C@H](CCCCN)NC(=O)[C@@H](N)CCCCN)C(C)C)C(N)=O
notes: Synthetic beta-strand mimic based on Abeta16-21 (KLVFFA), with the oligolysine stretch at the N-terminus
As for B1, the binding result in series [2] was “binds”.

The record behind these values is US20050119187A1 (BOARD OF SUPERVISORS OF LOUISIANA STATE UNIVERSITY AND …, published 2005).
